# Measured values: PMC12052454
# Primed or numbered codes have the meaning given here. The star is where a group is joined. 5FAM = O=C1OC2(c3ccc(O)cc3Oc3cc(O)ccc32)c2ccc(C(=O)*)cc21; Dabcyl′ = CN(C)c1ccc(/N=N/c2ccc(C(=O)*)cc2)cc1
# B1: ADAM9 fluorogenic substrate PEPDAB010 (Dabcyl-…[5-FAM]-NH2) (peptide)
# peptide: {Dabcyl′}-SPLAQAVRSSK(5FAM)-NH2
# SMILES: CC(C)C[C@H](NC(=O)[C@@H]1CCCN1C(=O)[C@H](CO)NC(=O)c1ccc(/N=N/c2ccc(N(C)C)cc2)cc1)C(=O)N[C@@H](C)C(=O)N[C@@H](CCC(N)=O)C(=O)N[C@@H](C)C(=O)N[C@H](C(=O)N[C@@H](CCCNC(=N)N)C(=O)N[C@@H](CO)C(=O)N[C@@H](CO)C(=O)N[C@@H](CCCCNC(=O)c1ccc2c(c1)C(=O)OC21c2ccc(O)cc2Oc2cc(O)ccc21)C(N)=O)C(C)C
# Target: ADAM9-P750L (rs144750648) (human) (UniProt Q13443)
# Sequence of UniProt Q13443 (Q13443 29-819 P750L): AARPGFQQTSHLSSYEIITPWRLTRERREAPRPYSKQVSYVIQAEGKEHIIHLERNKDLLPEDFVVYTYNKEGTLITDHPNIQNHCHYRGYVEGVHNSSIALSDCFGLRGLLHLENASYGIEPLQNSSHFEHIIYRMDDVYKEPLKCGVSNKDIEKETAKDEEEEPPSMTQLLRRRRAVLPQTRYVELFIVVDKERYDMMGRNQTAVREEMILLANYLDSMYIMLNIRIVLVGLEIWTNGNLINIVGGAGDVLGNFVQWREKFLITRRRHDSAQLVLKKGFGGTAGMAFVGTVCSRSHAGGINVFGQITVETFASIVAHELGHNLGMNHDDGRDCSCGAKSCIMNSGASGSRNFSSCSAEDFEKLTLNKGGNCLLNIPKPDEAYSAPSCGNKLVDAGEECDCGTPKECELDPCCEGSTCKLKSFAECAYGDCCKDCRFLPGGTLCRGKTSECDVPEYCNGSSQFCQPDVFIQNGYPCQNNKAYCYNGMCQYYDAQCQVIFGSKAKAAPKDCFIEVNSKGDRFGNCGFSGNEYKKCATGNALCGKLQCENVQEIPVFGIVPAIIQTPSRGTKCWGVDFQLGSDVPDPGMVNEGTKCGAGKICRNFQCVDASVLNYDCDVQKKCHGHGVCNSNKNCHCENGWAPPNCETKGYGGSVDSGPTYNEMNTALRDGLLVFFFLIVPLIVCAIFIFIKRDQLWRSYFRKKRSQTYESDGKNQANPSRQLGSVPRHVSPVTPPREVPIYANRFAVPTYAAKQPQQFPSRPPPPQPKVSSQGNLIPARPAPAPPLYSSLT
# Parameters: unit not given beside the values
binder,measurement,value
B1,"Km of cleavage of the fluorogenic substrate PEPDAB010 (Lineweaver-Burk plot, lysates of transfected HEK293 cells), reduction compared to ADAM9 WT (% reduction of Km compared to ADAM9 WT)",41.9
